From paper PMC6400189, “A three-domain copper-nitrite reductase with a unique sensing loop” (IUCrJ, 2019)
Values belong to the molecule of their own block, whether it stands above or below them.

Assays:
[1] = molecular target: Copper-containing nitrite reductase (NirK) from Thermus scotoductus SA-01 (Thermus scotoductus SA-01); experiment: SEC; Superdex 200 10/300 column, 150 mM Tris-HCl pH 7.6, 0.5 ml/min, calibrated with mass markers; subunit mass by SDS-PAGE
[2] = molecular target: Copper-containing nitrite reductase (NirK) from Thermus scotoductus SA-01 (Thermus scotoductus SA-01); experiment: crystal structure; twinned H3 crystals with one protomer in the asymmetric unit; trimer by the crystallographic threefold axis; data not shown
[3] = molecular target: Copper-containing nitrite reductase (NirK) from Thermus scotoductus SA-01 (Thermus scotoductus SA-01); experiment: crystal structure; C121 crystal with the whole homotrimer in the asymmetric unit, 1.63 Å; 0.2 M CaCl2, 0.1 M HEPES sodium pH 7.5, 28% PEG 400, 16°C
[4] = substrate: O=NO; experiment: nitrite reductase kinetics, methyl viologen standard assay; type: biochemical, Thermus scotoductus; conditions: methyl viologen (dithionite-reduced) as artificial electron donor per standard NirK assay; apparent constant

stoichiometry N [1]: 3 | stoichiometry N [2]: 3 | stoichiometry N [3]: 3
Molecule: Copper-containing nitrite reductase (NirK) from Thermus scotoductus SA-01 (enzyme)

B1: TsNirK (Thermus scotoductus SA-01) (protein)
chain: AERHFTLEARSSIFEVDQGVYLRGFSFNDMSPGPMLVVEEGDTVHITLRNLDNVTHGLSIHAANTQTSRFLGNVQPGETREFSFTADFPGVFMYHCAPGGHGIMAHTMGGQFGMIVVEPKEKYRMERELGRGPDLKLYIIQSEAYASGRDFYDGKALYVMFNGRNFRYVDEPIPVRPGDYLRIYFLNVGPNLTSTLHVVGGIFEYMYYQGNPKNLVVGAQTALAGPSDSWVIEWRVPPVEGDYTLVTHVFGTAIKGALGILRAKKDAPRIPEVRAEGVPGVKEIPASAKRVVDPYGLASPGHEHTVRVPLDPALAQPVAVGAKALEPLPVTVQMVGNSFYPKVLEIPVGTTVEFVNEDVFDLLEGERTGRHDAVVIDVQGPEPFVTPKLGHGERYRITFTKPGEYVYICSIHPYMKGIIRVYEPLSQRADSQ
notes: codon-optimised gene in pET-22b(+), E. coli BL21(DE3); 451-residue subunits (~50 kDa), homotrimer, three Cu per subunit; domains Ala20-Glu137, Leu154-Ala282, Arg309-Leu444
Km [4]: 27 ± 2 µM | kcat [4]: 65 ± 1 s⁻¹
